From EP1298214A2, “Plant thioesterases” (Calgene LLC, priority 1990, dated 1991)

System: Bay seeds extractable C12-preferring acyl-ACP thioesterase and lauroyl-CoA hydrolysis activity
Assay: Extractable hydrolysis activity at two stages of Bay seed development
Format: biochemical, Umbellularia californica
Settings: cpm ether-extractable radioactivity
Method: To assay for C12 thioesterase activity the following mixture is incubated at 30° for 30 min: "buffer" comprising 7mM KH2PO4-KOH pH 8, 20% v/v glycerol, 1mM dithiothreitol (DTT), 0.1% v/v Triton X100; sample to be tested for activity in the same or similar buffer as the "extraction buffer" described in Example 2; and 5µl of ^14C-radiolabeled lauroyl-ACP substrate for a total volume of 100µl and final lauroyl-ACP concentration of 0.5µM. Lauroyl-ACP substrate is prepared according to the method of Rock et al (Methods in Enzymology (1981) 72:397-403), using ACP prepared from Escherichia coli by the method of Rock and Cronan (Methods in Enzymology (1981) 71:341-351). The laurate is radiolabeled in the carboxylate group at a specific radioactivity of 50-60µCi/µmol.
The reaction is stopped by adding 0.5ml cold (0°) 10% v/v acetic acid. The fatty acid product of the hydrolytic enzyme action is extracted away from the unhydrolyzed substrate by adding 1ml diethyl ether and mixing vigorously. After settling for a few minutes the upper ether layer is transferred to 5ml scintillation fluid for determination of radioactivity by liquid scintillation spectrometry. Additional ether extractions may be performed to recover remaining traces of the reaction product for more accurate quantitation of the enzyme activity if desired. The amount of ether-extracted radioactivity is a direct measure of C12-preferring acyl-ACP thioesterase activity, provided the amount of enzyme is not sufficient to hydrolyze more than about 25% of the substrate. With greater activity than this the relationship between radioactivity in the ether layer and the quantity of enzyme becomes markedly nonlinear. The enzyme preparation must then be diluted appropriately to bring the activity into the linear range of the assay.
Further evidence that the C12-preferring acyl-ACP thioesterase is involved in the biosynthesis of laurate groups that predominate in the Bay seeds comes from a comparison of the extractable activity of the enzyme at two different stages of seed development. As shown in the following table, Table 5, very young seeds, which contain only long-chain fatty acids and insignificant amounts of laurate, yield much less C12-preferring ACP thioesterase than older seeds that have accumulated significant amounts of laurate. Thus it appears that significant activity of this enzyme is only present when the seeds are accumulating laurate. Additionally, there appears to be much less difference in lauroyl-CoA hydrolysis activity, consistent with their being different enzymes as discussed above in Example 5.

lauroyl-ACP [12:0-ACP]
Hydrolysis / Thioesterase Activity In Assays (Normal Seeds (2g/cotyledon pair)): 4704 cpm
Hydrolysis / Thioesterase Activity In Assays (Young Seeds (0.5g/cotyledon pair)): 376 cpm
